Data on two substances can be found in US20240301030A1.

The target in experiment [1] is SORLA with C-terminal fusion of the C-terminal fragment of venus fluorescent protein (human) (UniProt Q92673). The experiment can be described thus: cell-based or functional assay.
Experiment [2] deals with full-length SORLA with C-terminal GFP-tag (human) (UniProt Q92673). As to the kind of experiment: cell-based or functional assay.

Turning to “SORLA with C-terminal fusion of the N-terminal fragment of venus fluorescent protein, Q92673 82-2214”, the Mander's coefficient, overlap between the green venus signal specific for SORLA dimers and the total SORLA pool in experiment [1] turned out to be 0.37.

For the substance “full-length SORLA with C-terminal FLAG-tag, Q92673 82-2214”, in experiment [2], the Mander's coefficient, co-localization between the PLA signal (representing SORLA dimers) and SORLA-GFP (representing both monomers and dimers) came to 0.35.
